Bridge positions count the residues as written; N and C are the ends. Ends that are not written are not given here. COCH2 = acetyl group that carries the bridge
These substances were tested against T1, Recombinant Human FGFR2 alpha (IIIc) Fc Chimera Protein (Homo sapiens, UniProt P21802) (assay: ELISA binding affinity of enzymatically synthesized peptide to FGFR). Conditions: ELISA luminescence signal at 10 nmol/L peptide, SEQ ID NO: 47 at 10 nmol/L standardized to 1; enzyme synthesis product.
T1 construct: Fc (chimera); purchased R&D systems 712-FR-050
T1 sequence (P21802 with tags, fused parts or gaps limits assumed): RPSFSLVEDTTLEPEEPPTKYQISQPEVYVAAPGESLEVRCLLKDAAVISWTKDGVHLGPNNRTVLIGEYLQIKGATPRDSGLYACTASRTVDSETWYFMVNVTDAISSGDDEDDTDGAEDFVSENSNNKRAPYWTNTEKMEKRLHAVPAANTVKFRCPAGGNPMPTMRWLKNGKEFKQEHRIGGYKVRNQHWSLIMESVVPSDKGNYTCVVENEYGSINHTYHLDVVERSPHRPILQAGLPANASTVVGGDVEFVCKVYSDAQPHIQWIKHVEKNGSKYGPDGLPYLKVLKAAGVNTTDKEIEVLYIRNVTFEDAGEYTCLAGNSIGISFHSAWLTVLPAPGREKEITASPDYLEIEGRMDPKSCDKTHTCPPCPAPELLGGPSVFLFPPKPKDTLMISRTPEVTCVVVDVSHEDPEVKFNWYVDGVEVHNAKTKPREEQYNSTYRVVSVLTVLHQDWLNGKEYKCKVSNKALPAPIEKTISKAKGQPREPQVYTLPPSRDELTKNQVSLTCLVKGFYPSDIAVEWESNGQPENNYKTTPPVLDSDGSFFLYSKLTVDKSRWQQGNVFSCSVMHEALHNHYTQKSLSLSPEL
How it was run: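 FGFR2 alpha (IIIc) Fc chimera (5 ng/well) was immobilized, and Myc-tagged peptide was bound 3 h at room temperature, then detected with anti-Myc antibody (2 h) and chemiluminescent substrate. Signal was corrected against FGFR-free wells. Score A–D was the luminescence at 10 nmol/L peptide, normalized to cyclic peptide SEQ ID NO: 47.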

| Substance | Evaluation result of binding affinity to FGFR |
| --- | --- |
| 226 (YCEENYLDYEQYQYFIYFK(COCH2)Y; thioether 2-19 (inferred)) [compound 226] | A (0.7 or more) |
| 227 (YCEENYLDWEQYQYFIYFK(COCH2)Y; thioether 2-19 (inferred)) [compound 227] | A (0.7 or more) |
| 228 (YCEENYLDNEQYQYFIYFK(COCH2)Y; thioether 2-19 (inferred)) [compound 228] | A (0.7 or more) |
| 229 (YCEENYLDQEQYQYFIYFK(COCH2)Y; thioether 2-19 (inferred)) [compound 229] | A (0.7 or more) |
| 230 (YCEENYLDSEQYQYFIYFK(COCH2)Y; thioether 2-19 (inferred)) [compound 230] | A (0.7 or more) |
| 231 (YCEENYLDTEQYQYFIYFK(COCH2)Y; thioether 2-19 (inferred)) [compound 231] | A (0.7 or more) |
| 232 (YCEENYLDDEQYQYFIYFK(COCH2)Y; thioether 2-19 (inferred)) [compound 232] | A (0.7 or more) |
| 233 (YCEENYLDEEQYQYFIYFK(COCH2)Y; thioether 2-19 (inferred)) [compound 233] | A (0.7 or more) |
| 234 (YCEENYLDREQYQYFIYFK(COCH2)Y; thioether 2-19 (inferred)) [compound 234] | A (0.7 or more) |
| 235 (YCEENYLDHEQYQYFIYFK(COCH2)Y; thioether 2-19 (inferred)) [compound 235] | A (0.7 or more) |
| 236 (YCEENYLDPGQYQYFIYFK(COCH2)Y; thioether 2-19 (inferred)) [compound 236] | C (0.1 or more and less than 0.5) |
| 237 (YCEENYLDPPQYQYFIYFK(COCH2)Y; thioether 2-19 (inferred)) [compound 237] | A (0.7 or more) |
| 238 (YCEENYLDPLQYQYFIYFK(COCH2)Y; thioether 2-19 (inferred)) [compound 238] | A (0.7 or more) |
| 239 (YCEENYLDPIQYQYFIYFK(COCH2)Y; thioether 2-19 (inferred)) [compound 239] | A (0.7 or more) |
| 240 (YCEENYLDPVQYQYFIYFK(COCH2)Y; thioether 2-19 (inferred)) [compound 240] | A (0.7 or more) |
| 241 (YCEENYLDPFQYQYFIYFK(COCH2)Y; thioether 2-19 (inferred)) [compound 241] | A (0.7 or more) |
| 242 (YCEENYLDPYQYQYFIYFK(COCH2)Y; thioether 2-19 (inferred)) [compound 242] | A (0.7 or more) |
| 243 (YCEENYLDPWQYQYFIYFK(COCH2)Y; thioether 2-19 (inferred)) [compound 243] | A (0.7 or more) |
| 244 (YCEENYLDPNQYQYFIYFK(COCH2)Y; thioether 2-19 (inferred)) [compound 244] | A (0.7 or more) |
| 245 (YCEENYLDPQQYQYFIYFK(COCH2)Y; thioether 2-19 (inferred)) [compound 245] | A (0.7 or more) |
| 246 (YCEENYLDPSQYQYFIYFK(COCH2)Y; thioether 2-19 (inferred)) [compound 246] | A (0.7 or more) |

| Substance | Evaluation result of binding affinity to FGFR |
| --- | --- |
| 247 (YCEENYLDPTQYQYFIYFK(COCH2)Y; thioether 2-19 (inferred)) [compound 247] | A (0.7 or more) |
| 248 (YCEENYLDPDQYQYFIYFK(COCH2)Y; thioether 2-19 (inferred)) [compound 248] | A (0.7 or more) |
| 249 (YCEENYLDPRQYQYFIYFK(COCH2)Y; thioether 2-19 (inferred)) [compound 249] | A (0.7 or more) |
| 250 (YCEENYLDPHQYQYFIYFK(COCH2)Y; thioether 2-19 (inferred)) [compound 250] | A (0.7 or more) |
| 251 (YCEENYLDPEHYQYFIYFK(COCH2)Y; thioether 2-19 (inferred)) [compound 251] | C (0.1 or more and less than 0.5) |
| 252 (YCEENYLDPEQLQYFIYFK(COCH2)Y; thioether 2-19 (inferred)) [compound 252] | C (0.1 or more and less than 0.5) |
| 253 (YCEENYLDPEQIQYFIYFK(COCH2)Y; thioether 2-19 (inferred)) [compound 253] | C (0.1 or more and less than 0.5) |
| 254 (YCEENYLDPEQFQYFIYFK(COCH2)Y; thioether 2-19 (inferred)) [compound 254] | A (0.7 or more) |
| 255 (YCEENYLDPEQWQYFIYFK(COCH2)Y; thioether 2-19 (inferred)) [compound 255] | A (0.7 or more) |
| 256 (YCEENYLDPEQHQYFIYFK(COCH2)Y; thioether 2-19 (inferred)) [compound 256] | A (0.7 or more) |
| 257 (YCEENYLDPEQYGYFIYFK(COCH2)Y; thioether 2-19 (inferred)) [compound 257] | A (0.7 or more) |
| 258 (YCEENYLDPEQYLYFIYFK(COCH2)Y; thioether 2-19 (inferred)) [compound 258] | A (0.7 or more) |
| 259 (YCEENYLDPEQYIYFIYFK(COCH2)Y; thioether 2-19 (inferred)) [compound 259] | A (0.7 or more) |
| 260 (YCEENYLDPEQYVYFIYFK(COCH2)Y; thioether 2-19) [compound 260] | A (0.7 or more) |
| 261 (YCEENYLDPEQYFYFIYFK(COCH2)Y; thioether 2-19) [compound 261] | B (0.5 or more and less than 0.7) |
| 262 (YCEENYLDPEQYYYFIYFK(COCH2)Y; thioether 2-19) [compound 262] | A (0.7 or more) |
| 263 (YCEENYLDPEQYWYFIYFK(COCH2)Y; thioether 2-19) [compound 263] | A (0.7 or more) |
| 264 (YCEENYLDPEQYNYFIYFK(COCH2)Y; thioether 2-19) [compound 264] | A (0.7 or more) |
| 265 (YCEENYLDPEQYSYFIYFK(COCH2)Y; thioether 2-19) [compound 265] | A (0.7 or more) |
| 266 (YCEENYLDPEQYTYFIYFK(COCH2)Y; thioether 2-19) [compound 266] | A (0.7 or more) |
| 267 (YCEENYLDPEQYDYFIYFK(COCH2)Y; thioether 2-19) [compound 267] | A (0.7 or more) |

| Substance | Evaluation result of binding affinity to FGFR |
| --- | --- |
| 268 (YCEENYLDPEQYEYFIYFK(COCH2)Y; thioether 2-19) [compound 268] | A (0.7 or more) |
| 269 (YCEENYLDPEQYRYFIYFK(COCH2)Y; thioether 2-19) [compound 269] | A (0.7 or more) |
| 270 (YCEENYLDPEQYHYFIYFK(COCH2)Y; thioether 2-19) [compound 270] | A (0.7 or more) |
| 271 (YCEENYLDPEQYQIFIYFK(COCH2)Y; thioether 2-19) [compound 271] | C (0.1 or more and less than 0.5) |
| 272 (YCEENYLDPEQYQFFIYFK(COCH2)Y; thioether 2-19) [compound 272] | A (0.7 or more) |
| 273 (YCEENYLDPEQYQNFIYFK(COCH2)Y; thioether 2-19) [compound 273] | C (0.1 or more and less than 0.5) |
| 274 (YCEENYLDPEQYQHFIYFK(COCH2)Y; thioether 2-19) [compound 274] | C (0.1 or more and less than 0.5) |
| 275 (YCEENYLDPEQYQYLIYFK(COCH2)Y; thioether 2-19) [compound 275] | A (0.7 or more) |
| 276 (YCEENYLDPEQYQYYIYFK(COCH2)Y; thioether 2-19) [compound 276] | B (0.5 or more and less than 0.7) |
| 277 (YCEENYLDPEQYQYFGYFK(COCH2)Y; thioether 2-19) [compound 277] | C (0.1 or more and less than 0.5) |
| 278 (YCEENYLDPEQYQYFLYFK(COCH2)Y; thioether 2-19) [compound 278] | A (0.7 or more) |
| 279 (YCEENYLDPEQYQYFVYFK(COCH2)Y; thioether 2-19) [compound 279] | A (0.7 or more) |
| 280 (YCEENYLDPEQYQYFFYFK(COCH2)Y; thioether 2-19) [compound 280] | A (0.7 or more) |
| 281 (YCEENYLDPEQYQYFYYFK(COCH2)Y; thioether 2-19) [compound 281] | A (0.7 or more) |
| 282 (YCEENYLDPEQYQYFWYFK(COCH2)Y; thioether 2-19) [compound 282] | A (0.7 or more) |
| 283 (YCEENYLDPEQYQYFNYFK(COCH2)Y; thioether 2-19) [compound 283] | A (0.7 or more) |
| 284 (YCEENYLDPEQYQYFQYFK(COCH2)Y; thioether 2-19) [compound 284] | A (0.7 or more) |
| 285 (YCEENYLDPEQYQYFSYFK(COCH2)Y; thioether 2-19) [compound 285] | A (0.7 or more) |
| 286 (YCEENYLDPEQYQYFTYFK(COCH2)Y; thioether 2-19) [compound 286] | A (0.7 or more) |

Reference: patent publication US20260008815A1, “CYCLIC PEPTIDE OR SALT THEREOF, AND USES THEREOF” (FUJIFILM Corporation, priority 2023, published 2026)
